Values joined by “and” are separate entries in the source; they are usually repeats but may differ in a detail not shown here. Equal entries are not always repeated. Ends that are not written are not given here.

In one assay the target is T1, PTH receptor (Mus musculus, UniProt P41593).
T1 construct: a mouse cranial bone-derived osteoblast-like cell strain, MC3T3-EI cells; endogenous in cells; host or cells: MC3T3-E1 mouse osteoblast-like cells
T1 sequence (P41593 27-591): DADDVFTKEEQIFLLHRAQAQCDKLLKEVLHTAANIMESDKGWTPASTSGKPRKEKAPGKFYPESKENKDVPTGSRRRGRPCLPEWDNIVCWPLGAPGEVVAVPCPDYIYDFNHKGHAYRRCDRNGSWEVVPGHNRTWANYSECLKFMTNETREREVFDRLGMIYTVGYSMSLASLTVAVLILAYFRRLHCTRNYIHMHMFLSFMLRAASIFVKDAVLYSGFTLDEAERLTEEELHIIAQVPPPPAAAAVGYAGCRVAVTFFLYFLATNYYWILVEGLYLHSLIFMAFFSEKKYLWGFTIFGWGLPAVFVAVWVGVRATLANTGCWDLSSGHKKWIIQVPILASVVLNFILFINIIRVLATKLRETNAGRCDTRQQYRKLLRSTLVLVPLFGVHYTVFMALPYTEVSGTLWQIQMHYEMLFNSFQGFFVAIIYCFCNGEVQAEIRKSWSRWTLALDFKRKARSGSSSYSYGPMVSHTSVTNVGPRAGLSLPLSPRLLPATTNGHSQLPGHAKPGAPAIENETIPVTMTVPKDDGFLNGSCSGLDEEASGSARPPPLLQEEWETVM
The assay is described as follows: cAMP production in MC3T3-EI osteoblast-like cells (biological activity of PTH(1-34) derivatives). The assay is classed as cell-based. The conditions noted are these: 0.01-100 nM derivative, room temperature 30 minutes, hPTH(1-34) standard = 1.00. The procedure:
The biological activity of the PTH (1-34) derivatives was evaluated by a modified version of the method reported by Shigeno et al. in The Journal of Biological Chemistry 263, 18369-18377 (1988). A culture solution (Hank's solution, containing 20 mM N-2-hydroxyethylpiperazine-N'-2-ethanesulfonic acid-(HEPES), 0.1% bovine serum albumin and 0.5 mM isobutylmethyl-xanthine) containing a 0.01, 0.1, 1, 10 or 100 nM derivative was added in an amount of 100 μl to a mouse cranial bone-derived osteoblast-like cell strain, MC3T3-EI cells, cultivated on a 96-well multiplate (Nunclon, Nunc), followed by reaction at room temperature for 30 minutes. After addition of 100 μl of 0.2N hydrochloric acid, the mixture was immersed in boiling water for 2.5 minutes, and cyclic adenosine monophosphate (cAMP) produced by a PTH receptor was extracted from the cells. The total cAMP in the culture solution and the cells was assayed using a commercial radioimmunoassay kit (cyclic AMP [^125 I] kit "Du Pont-Daiichi", Daiichi Kagaku Yakuhin).
For `CC[C@H](C)[C@H](NC(=O)[C@H](CCC(=O)O)NC(=O)[C@H](CO)NC(=O)[C@@H](NC(=O)[C@@H](N)CO)C(C)C)C(=O)N[C@@H](CCC(N)=O)C(=O)N[C@@H](CC(C)C)C(=O)N[C@@H](CCSC)C(=O)N[C@@H](Cc1c[nH]cn1)C(=O)N[C@@H](CC(N)=O)C(=O)N[C@@H](CC(C)C)C(=O)NCC(=O)N[C@@H](CCCCN)C(=O)N[C@@H](Cc1c[nH]cn1)C(=O)N[C@@H](CC(C)C)C(=O)N[C@@H](CC(N)=O)C(=O)N[C@@H](CO)C(=O)N[C@@H](CCSC)C(=O)N[C@@H](CCC(=O)O)C(=O)N[C@@H](CCCNC(=N)N)C(=O)N[C@H](C(=O)N[C@@H](CCC(=O)O)C(=O)N[C@@H](Cc1c[nH]c2ccccc12)C(=O)N[C@@H](CC(C)C)C(=O)N[C@@H](CCCNC(=N)N)C(=O)N[C@@H](CCCCN)C(=O)N[C@H](C(=O)N[C@@H](CC(C)C)C(=O)N[C@@H](CCC(N)=O)C(=O)N[C@@H](CC(=O)O)C(=O)N[C@H](C(=O)N[C@@H](Cc1c[nH]cn1)C(=O)N[C@@H](CC(N)=O)C(=O)N[C@@H](Cc1ccccc1)C(=O)O)C(C)C)[C@@H](C)O)C(C)C` [[Thr^27]hPTH(1-34)], the “Biological Activity, Represented by Relative Activity to hPTH(1-34)” value was 0.96.

As for “SVSEIQLMHNLGKHLNSMERVEWLQQQLQDVHNF [[Gln^25,26,27]hPTH (1-34), [Gln^25,26,27]hPTH(1-34)]”, the “Biological Activity, Represented by Relative Activity to hPTH(1-34)” value came out at 0.41.

For the compound “SVSEIQLMHNLGKHLKKMERVEWLRKKLQDVHNF [[Lys^16,17]hPTH(1-34)]”, the “Biological Activity, Represented by Relative Activity to hPTH(1-34)” value amounted to 8.85.

Turning to “SVSEIQLMHNLGKHLRSMERVEWLRKQLQDVHNF [[Arg^16,Gln^27]hPTH(1-34)]”, the “Biological Activity, Represented by Relative Activity to hPTH(1-34)” value turned out to be 2.16.

With `CC[C@H](C)[C@H](NC(=O)[C@H](CCC(=O)O)NC(=O)[C@H](CO)NC(=O)[C@@H](NC(=O)[C@@H](N)CO)C(C)C)C(=O)N[C@@H](CCC(N)=O)C(=O)N[C@@H](CC(C)C)C(=O)N[C@@H](CCSC)C(=O)N[C@@H](Cc1c[nH]cn1)C(=O)N[C@@H](CC(N)=O)C(=O)N[C@@H](CC(C)C)C(=O)NCC(=O)N[C@@H](CCCCN)C(=O)N[C@@H](Cc1c[nH]cn1)C(=O)N[C@@H](CC(C)C)C(=O)N[C@@H](CCC(=O)O)C(=O)N[C@@H](CO)C(=O)N[C@@H](CCSC)C(=O)N[C@@H](CCC(=O)O)C(=O)N[C@@H](CCCNC(=N)N)C(=O)N[C@H](C(=O)N[C@@H](CCC(=O)O)C(=O)N[C@@H](Cc1c[nH]c2ccccc12)C(=O)N[C@@H](CC(C)C)C(=O)N[C@@H](CCCNC(=N)N)C(=O)N[C@@H](CCCCN)C(=O)N[C@@H](CCCCN)C(=O)N[C@@H](CC(C)C)C(=O)N[C@@H](CCC(N)=O)C(=O)N[C@@H](CC(=O)O)C(=O)N[C@H](C(=O)N[C@@H](Cc1c[nH]cn1)C(=O)N[C@@H](CC(N)=O)C(=O)N[C@@H](Cc1ccccc1)C(=O)O)C(C)C)C(C)C` [[Glu^16]hPTH(1-34)], the “Biological Activity, Represented by Relative Activity to hPTH(1-34)” value was 1.55.

With `CC[C@H](C)[C@H](NC(=O)[C@H](CCC(=O)O)NC(=O)[C@H](CO)NC(=O)[C@@H](NC(=O)[C@@H](N)CO)C(C)C)C(=O)N[C@@H](CCC(N)=O)C(=O)N[C@@H](CC(C)C)C(=O)N[C@@H](CCSC)C(=O)N[C@@H](Cc1c[nH]cn1)C(=O)N[C@@H](CC(N)=O)C(=O)N[C@@H](CC(C)C)C(=O)NCC(=O)N[C@@H](CCCCN)C(=O)N[C@@H](Cc1c[nH]cn1)C(=O)N[C@@H](CC(C)C)C(=O)N[C@@H](CC(N)=O)C(=O)N[C@@H](CO)C(=O)N[C@@H](CCSC)C(=O)N[C@@H](CCC(=O)O)C(=O)N[C@@H](CCCNC(=N)N)C(=O)N[C@H](C(=O)N[C@@H](CCC(=O)O)C(=O)N[C@@H](Cc1c[nH]c2ccccc12)C(=O)N[C@@H](CC(C)C)C(=O)N[C@@H](CCCNC(=N)N)C(=O)N[C@@H](CCCCN)C(=O)N[C@@H](CCCCN)C(=O)N[C@@H](CC(C)C)C(=O)N[C@@H](CCC(N)=O)C(=O)N[C@@H](CC(=O)O)C(=O)N[C@H](C(=O)N[C@@H](Cc1c[nH]cn1)C(=O)N[C@@H](CC(N)=O)C(=O)N[C@@H](Cc1ccccc1)C(=O)O)C(C)C)C(C)C` [hPTH(1-34), reference compound], the “Biological Activity, Represented by Relative Activity to hPTH(1-34)” value was determined as 1.00.

A further assay has as its target PTH receptor (mouse) (UniProt P41593).
Experiment: not given
Settings: not given
With “[Lys^16,Asp^17 ]hPTH(1-34) (from UniProt P01270) (peptide)”, the cAMP production in MC3T3-E1 cells, relative activity to hPTH(1-34) (relative activity to hPTH(1-34)) amounted to 1.24.

As for “[D-Lys^16 ]hPTH(1-34) (from UniProt P01270) (peptide)”, the cAMP production in MC3T3-E1 cells, relative activity to hPTH(1-34) (relative activity to hPTH(1-34)) came out at 0.86.

In the case of “[Thr^27 ]hPTH(1-34) (from UniProt P01270) (peptide)”, the cAMP production in MC3T3-E1 cells, relative activity to hPTH(1-34) (relative activity to hPTH(1-34)) is 0.96.

Consider “[Gln^25,26,27 ]hPTH(1-34) (from UniProt P01270) (peptide)”, for which the cAMP production in MC3T3-E1 cells, relative activity to hPTH(1-34) (relative activity to hPTH(1-34)) was determined as 0.41.

“[Lys^15,16,17,His^27 ]hPTH(1-34) (from UniProt P01270) (peptide)” displayed a cAMP production in MC3T3-E1 cells, relative activity to hPTH(1-34) (relative activity to hPTH(1-34)) of 7.47.

“[Lys^14,15,16,17 ]hPTH(1-34) (from UniProt P01270) (peptide)” yielded a cAMP production in MC3T3-E1 cells, relative activity to hPTH(1-34) (relative activity to hPTH(1-34)) of 6.39.

Compound “[Orn^16,Gln^27 ]hPTH(1-34) (from UniProt P01270) (peptide)” had a cAMP production in MC3T3-E1 cells, relative activity to hPTH(1-34) (relative activity to hPTH(1-34)) of 1.82.

“[Arg^16,Gln^27 ]hPTH(1-34) (from UniProt P01270) (peptide)” returned a cAMP production in MC3T3-E1 cells, relative activity to hPTH(1-34) (relative activity to hPTH(1-34)) of 2.16.

Turning to “[Lys^15,16,17 ]hPTH(1-34) (from UniProt P01270) (peptide)”, the cAMP production in MC3T3-E1 cells, relative activity to hPTH(1-34) (relative activity to hPTH(1-34)) worked out at 7.62.

Compound “[D-Ala^3 ]hPTH(1-34) (from UniProt P01270) (peptide)” gave a cAMP production in MC3T3-E1 cells, relative activity to hPTH(1-34) (relative activity to hPTH(1-34)) of 2.17.

As to “[Hci^16,Gln^27 ]hPTH(1-34) (from UniProt P01270) (peptide)”, the cAMP production in MC3T3-E1 cells, relative activity to hPTH(1-34) (relative activity to hPTH(1-34)) amounted to 1.54.

On to “[Glu^16 ]hPTH(1-34) (from UniProt P01270) (peptide)”, for which the cAMP production in MC3T3-E1 cells, relative activity to hPTH(1-34) (relative activity to hPTH(1-34)) stood at 1.55.

Turning to “[Lys^15,16,His^27 ]hPTH(1-34) (from UniProt P01270) (peptide)”, the cAMP production in MC3T3-E1 cells, relative activity to hPTH(1-34) (relative activity to hPTH(1-34)) is 1.49.

The compound “[Lys^16,17 ]hPTH(1-34) (from UniProt P01270) (peptide)” returned a cAMP production in MC3T3-E1 cells, relative activity to hPTH(1-34) (relative activity to hPTH(1-34)) of 8.85.

In turn, “[Arg^26,27 ]hPTH(1-34) (from UniProt P01270) (peptide)” had a cAMP production in MC3T3-E1 cells, relative activity to hPTH(1-34) (relative activity to hPTH(1-34)) of 0.98.

Take “[Gln^26,27 ]hPTH(1-34) (from UniProt P01270) (peptide)”: the cAMP production in MC3T3-E1 cells, relative activity to hPTH(1-34) (relative activity to hPTH(1-34)) came to 1.19.

Take “[Gln^16 ]hPTH(1-34) (from UniProt P01270) (peptide)”: the cAMP production in MC3T3-E1 cells, relative activity to hPTH(1-34) (relative activity to hPTH(1-34)) was determined as 1.73.

“[Thr^16 ]hPTH(1-34) (from UniProt P01270) (peptide)” came in with a cAMP production in MC3T3-E1 cells, relative activity to hPTH(1-34) (relative activity to hPTH(1-34)) of 1.74.

As for “[Lys^16 ]hPTH(1-34) (from UniProt P01270) (peptide)”, the cAMP production in MC3T3-E1 cells, relative activity to hPTH(1-34) (relative activity to hPTH(1-34)) was 5.48 and 3.37.

The values above are taken from patent publication US5434246A, “Parathyroid hormone derivatives” (Takeda Chemical Industries, Ltd., priority 1992, dated 1995).
